The record followed here is publication PMC6613885.

One experiment deals with GST-LC3A. The experiment can be described thus: GST-pulldown, in vitro-translated 35S-labelled protein, autoradiography quantification. The note with it: Means ± SD of 3 independent experiments; parent: est. 0.5; read off a plot.
“Myc-tagged BECN1, full-length, in vitro translated (from UniProt Q14457) F97A; I100A; S90E; S93E; S96E”: the response is 0.25 % binding.

Take “Myc-tagged BECN1, full-length, in vitro translated (from UniProt Q14457) F97A; I100A”: the response came out at 0.25 % binding.

Turning to “Myc-tagged BECN1, full-length, in vitro translated (from UniProt Q14457) S90E; S93E; S96E”, the response was 0.6 % binding.

Still in this experiment, the particulars now being: Means ± SD of 3 independent experiments; parent: est. 1.7; read off a plot.
In the case of “Myc-tagged PIK3C3, full-length, in vitro translated (from UniProt Q8NEB9) F250A; V253A”, the response came out at 1.2 % binding.

On to “Myc-tagged PIK3C3, full-length, in vitro translated (from UniProt Q8NEB9) F198A; I201A”, for which the response was 1.8 % binding.

On to “Myc-tagged PIK3C3, full-length, in vitro translated (from UniProt Q8NEB9) F198A; I201A; F250A; V253A”, for which the response came out at 1 % binding.

Still in this experiment, the particulars now being: Means ± SD of 3 independent experiments; parent: est. 2.6; read off a plot.
Turning to “Myc-tagged ATG14, full-length, in vitro translated (from UniProt Q6ZNE5) F64A; F67A; W435A; L438A”, the response worked out at 1 % binding.

Take “Myc-tagged ATG14, full-length, in vitro translated (from UniProt Q6ZNE5) F64A; F67A”: the response came to 2.3 % binding.

In the case of “Myc-tagged ATG14, full-length, in vitro translated (from UniProt Q6ZNE5) W435A; L438A”, the response worked out at 1.2 % binding.
